Laboratory results as given in US20220098295A1 (ALLERGAN, published 2022).

Tests used:
[1] = target: T1, human PDGF-BB (R&D system, 220-BB) (human, UniProt P01127 82-190, biotinylated in the blocking ELISA of Example 4 (sites not given); unlabelled in the SPR assay); test: Real-time sensorgram with response in nm (assay not given). Sample 'P36F3', association with rhPDGF BB at 25 - 500 nM. The column is headed kdis(1/s).
T1 construct: Bought protein (R&D Systems), a homodimer of two B subunits; also called human biotinylated PDGF-BB

[2] = target: T1, human PDGF-BB (R&D system, 220-BB); test: Real-time sensorgram with response in nm (assay not given). Sample 'P36F3', association with rhPDGF BB at 25 - 500 nM.
[3] = target: T1, human PDGF-BB (R&D system, 220-BB); test: SPR (Biacore T200, 25 C), HCAb captured by anti-human IgG Fc, PDGF-BB 0.625-10 nM as analyte, 1:1 model
Description: (§1) Anti-human IgG Fc antibody was directly immobilized across CM5 biosensor chip (GE Healthcare) using a standard coupling kit (GE Healthcare, BR-1008-39) according to the manufacturer's instructions. Purified anti-PDGF-BB HCAb molecules were diluted in running buffer HBS-EPB (GE Healthcare, BR-1006-69) at 0.5 to 1.0 μg/ml and captured on the coupled across anti-human IgG Fc surface. A 2-fold serial dilution of human PDGF-BB (R&D system, 220-BB) range from 0.625 to 10 nM were injected over anti-PDGF-BB HCAb captured surface at a flow rate of 30 μl/min. Associating rates (Ka) and dissociation rates (Kd) were calculated based on 1:1 Langmuir binding model with BIAcore T200 evaluation software version 2.0 (GE Healthcare). The equilibrium dissociation constant (Kd) was determined by the ratio Koff/Kon.

[4] = target: T1, human PDGF-BB (R&D system, 220-BB); test: blocking ELISA: HCAb dilutions with 2 nM biotinylated PDGF-BB, binding to coated PDGFRβ-Fc
Description: Two micrograms per milliliter per well of PDGFRβ-Fc (R & D Systems) was coated on 96 well microtiter plates overnight at 4° C. In a separate plate, serial dilutions of anti-PDGF BB HCAb were incubated with 2 nM human biotinylated PDGF-BB (R&D Systems) for 1 hr. One hundred microliters of the anti-PDGF BB HCAb-PDGF-BB mix were applied to the PDGFRβ-Fc-coated microtiter plate for 1 hr. The detection antibody (anti-biotin HRP) was then added for 1 hr and the ELISA was developed with a chemiluminescent HRP substrate and read by an ELISA plate reader. Anti-PDGF BB HCAb blocked the binding of PDGF-BB to its receptor PDGFRβ and IC₅₀ of anti-PDGF BB HCAb blocking to PDGFRβ is summarized in Table 4.

[5] = target: T1, human PDGF-BB (R&D system, 220-BB); test: SPR (Biacore T200, 25 C), HCAb captured by anti-human IgG Fc, PDGF-BB as analyte
Description: as §1

[6] = target: T1, human PDGF-BB (R&D system, 220-BB); test: SPR (Biacore T200, 25 C), HCAb captured by anti-human IgG Fc, PDGF-BB as analyte; * over the limit of detection
Description: as §1

T1 sequence (P01127 82-190 limits assumed): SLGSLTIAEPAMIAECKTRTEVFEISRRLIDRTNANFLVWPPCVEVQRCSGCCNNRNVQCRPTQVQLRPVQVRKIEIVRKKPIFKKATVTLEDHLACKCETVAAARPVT

B1: P36F3 (bispecific antibody, part only; not given: linker, domain order, Fc, V domains shown, not shown: another chain or arm of the molecule; a dimerising Fc or GST; small tags and cut ends)
VH 1: QVQLVESGGGLVQPGGSLRLSCAASGFTFSSYWMHWVRQAPGKGLVWVSRINSDGSSTSYADSVKGRFTISRDNAKNTLYLQMNSLRAEDTAVYYCAKDKGITMVRGVIHFDYWGQGTLVTVSS
VH 2: QVQLVESGGGLVQPGGSLRLSCAASGFTFSSYWMHWVRQAPGKGLVWVSRINSDGSSTSYADSVKGRFTISRDNAKNTLYLQMNSLRAEDTAVYYCAREGYSSGGQFDYWGQGTLVTVSS
[1]
  koff: 1.1e-06 s⁻¹
[2]
  Kd: 0.0434 nM
  kon: 25300 M⁻¹ s⁻¹

B2: anti-PDGF BB HCAb P36E10 (antibody, IgG1, V domains shown)
VH: QVQLLESGGGLVQPGGSLRLSCAASGFTFSSYAMSWVRQAPGKGLEWVSAISGSGGSTYYADSVKGRFTISRDNSKNTLYLQMNSLRAEDTAVYYCASNSGFFTLSGFIRYKFWGQGTLVTVSS
notes: Heavy chain only antibody, no light chain; VH fused to IgG1 hinge and CH2/CH3; not shown: human IgG1 hinge region and CH2/CH3 regions (no CH1)
[3]
  kon: 42100 M⁻¹ s⁻¹
[4]
  IC50: 21.4 nM
[5]
  Kd: 0.455 nM
  koff: 1.92e-05 s⁻¹

B3: anti-PDGF BB HCAb P36A3 (antibody, V domains shown)
VH: QVQLLESGGGLVQPGGSLRLSCAASGFTFSSYAMSWVRQAPGKGLEWVSAISGSGGSTYYADSVKGRFTISRDNSKNTLYLQMNSLRAEDTAVYYCASNSVFSTLKGFLQYKFWGQGTLVTVSS
notes: Heavy chain only antibody, no light chain; VH fused to IgG1 hinge and CH2/CH3 and made in CHO cells as fully human recombinant HCAb; It was captured by anti-human IgG Fc in the SPR assay; not shown: human IgG1 hinge region and CH2/CH3 regions (no CH1)
[3]
  kon: 219000 M⁻¹ s⁻¹
[4]
  IC50: 7.75 nM
[6]
  Kd: < 0.00457 nM
  koff: < 1e-06 s⁻¹

B4: anti-PDGF BB HCAb P36A4 (antibody, IgG1, V domains shown)
VH: QVQLLESGGGLVQPGGSLRLSCPASGFTFSSYAMSWVRQAPGKGLEWVSAISGSGGSTYYADSVKGRFTISRDNSKNTLYLQMNSLRAEDTAVYYCARNNGIFMFRGVIRYKSWGQGTLVTVSS
notes: as for B2
[3]
  kon: 654000 M⁻¹ s⁻¹
[4]
  IC50: 3.77 nM
[5]
  Kd: 0.00179 nM
  koff: 1.17e-06 s⁻¹

B5: anti-PDGF BB HCAb P36C12 (antibody, IgG1, V domains shown)
VH: QVQLLESGGGLVQPGGSLRLSCAASGFTFSSYAMSWVRQAPGKGLEWVSAISGSGGSTYYADSVKGRFTISRDNSKNTLYLQMNSLRAEDTAVYYCARNSEIFMVKGVIQYNSWGQGTLVTVSS
notes: Heavy chain only antibody, no light chain; VH fused to IgG1 hinge and CH2/CH3; It is printed in places as P36012, which looks like a misprint of P36C12; also called P36012; not shown: human IgG1 hinge region and CH2/CH3 regions (no CH1)
[3]
  kon: 1e+06 M⁻¹ s⁻¹
[4]
  IC50: 1.07 nM
[6]
  Kd: < 0.001 nM
  koff: < 1e-06 s⁻¹

B6: anti-PDGF BB HCAb P36E8 (antibody, IgG1, V domains shown)
VH: QVQLLESGGGLVQPGGSLRLSCAASGFTFSSYAMSWVRQAPGKGLEWVSAISGSGGSTYYADSVKGRFTISRDNSKNTLYLQMNSLRAEDTAVYYCASNSELFKVNGVIRYDFWGQGTLVTVSS
notes: as for B2
[3]
  kon: 243000 M⁻¹ s⁻¹
[4]
  IC50: 5.52 nM
[6]
  Kd: < 0.00412 nM
  koff: < 1e-06 s⁻¹

B7: anti-PDGF BB HCAb P36F3 (antibody, IgG1, V domains shown)
VH: QVQLVESGGGLVQPGGSLRLSCAASGFTFSSYWMHWVRQAPGKGLVWVSRINSDGSSTSYADSVKGRFTISRDNAKNTLYLQMNSLRAEDTAVYYCAKDKGITMVRGVIHFDYWGQGTLVTVSS
notes: as for B2
[3]
  kon: 988000 M⁻¹ s⁻¹
[4]
  IC50: 1.71 nM
[5]
  Kd: 0.00883 nM
  koff: 8.73e-06 s⁻¹
